Data from US20190085083A1 (BRIGHAM AND WOMEN S HOSPITAL, published 2019).

Target: T1, hKLRG1 (human KLRG1), plate-coated, Example 21 (human, UniProt Q96E93 60-195, limits assumed)
T1 construct: also called plate-coated KLRG1
T1 sequence (looked up): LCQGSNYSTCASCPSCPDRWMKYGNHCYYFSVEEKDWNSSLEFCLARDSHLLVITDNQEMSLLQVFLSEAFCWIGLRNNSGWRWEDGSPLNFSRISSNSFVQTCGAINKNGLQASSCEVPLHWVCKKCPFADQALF
Assay: ELISA, soluble hE-cadherin on plate-coated hKLRG1
Source text: An ELISA based KLRG1/E-cadherin competition assay was developed to measure KLRG1/E-cadherin binding as well as neutralization of KLRG1/E-cadherin binding.
FIG. 23 presents the results of soluble hE-cadherin binding to plate-coated hKLRG1.

EC50: 25 nM
B1: soluble recombinant human E-cadherin (ligand)
chain: DWVIPPISCPENEKGPFPKNLVQIKSNKDKEGKVFYSITGQGADTPPVGVFIIERETGWLKVTEPLDRERIATYTLFSHAVSSNGNAVEDPMEILITVTDQNDNKPEFTQEVFKGSVMEGALPGTSVMEVTATDADDDVNTYNAAIAYTILSQDPELPDKNMFTINRNTGVISVVTTGLDRESFPTYTLVVQAADLQGEGLSTTATAVITVTDTNDNPPIFNPTTYKGQVPENEANVVITTLKVTDADAPNTPAWEAVYTILNDDGGQFVVTTNPVNNDGILKTAKGLDFEAKQQYILHVAVTNVVPFEVSLTTSTATVTVDVLDVNEAPIFVPPEKRVEVSEDFGVGQEITSYTAQEPDTFMEQKITYRIWRDTANWLEINPDTGAISTRAELDREDFEHVKNSTYTALIIATDNGSPVATGTGTLLLILSDVNDNAPIPEPRTIFFCERNPKPQVINIIDADLPPNTSPFTAELTHGASANWTIQYNDPTQESIILKPKMALEVGDYKINLKLMDNQNKDQVTTLEVSVCDCEGAAGVCRKAQPVEAGLQIPA
notes: also called hE-cadherin; soluble E-cadherin
